Entries after “also recorded” stand apart in the source; their conditions may differ.
Legend:
[1] = Solubility of recombinant ATF fragments; type: physicochemical; details: compared to ATF 135 aa
Source text: The amino terminal fragment (ATF, 135 aa) of uPA was used as a target ligand to develop uPAR-targeted theranostic IONPs. The yield and purity of recombinant ATF from bacterial cultures have been less than optimal due to the formation of undesirable aggregates. By removing of the hydrophobic amino acids that promote the formation of aggregates, uPAR targeting ligands (39 and 68 aa) with receptor-binding peptide regions were engineered as improvements.
In comparison with the full length ATF (135 aa), this short uPAR targeted ligand is an improved candidate to engineer the fusion targeting ligand ATF68-MMP14 with dual uPAR targeting and MMP14 protease activity.

[2] = target: uPAR (Homo sapiens, UniProt Q03405); assay: uPAR-targeting efficiency of ATF fragment; details: in comparison with the full length ATF (135 aa)
Sequence of uPAR (Q03405 23-305): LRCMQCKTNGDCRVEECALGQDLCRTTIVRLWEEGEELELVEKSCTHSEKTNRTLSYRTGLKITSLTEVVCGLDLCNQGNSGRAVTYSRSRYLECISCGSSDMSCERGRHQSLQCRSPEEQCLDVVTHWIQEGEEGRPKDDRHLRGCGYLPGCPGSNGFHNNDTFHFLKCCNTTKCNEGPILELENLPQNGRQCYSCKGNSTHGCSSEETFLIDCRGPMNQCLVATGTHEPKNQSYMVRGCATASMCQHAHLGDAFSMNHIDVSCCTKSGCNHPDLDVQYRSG

B1: ATF68: uPA-ATF with only the growth factor domain, 68 aa uPAR targeting ligand (SEQ ID NO:2) (protein)
chain: SNELHQVPSNCDCLNGGTCVSNKYFSNIHWCNCPKKFGGQHCEIDKSKTCYEGNGHFYRGKASTDTMG
For B1, the solubility [1] was “better solubility; also recorded: improved physiological solubility” and the uPAR-targeting efficiency [2] was “higher uPAR-targeting efficiency”.
